{"source": "paper PMC3793860", "about": "“A role for the vesicle-associated tubulin binding protein ARL6 (BBS3) in flagellum extension in Trypanosoma brucei” (Biochimica et Biophysica Acta, 2012)", "target": "freshly polymerised microtubules (Microtubule Binding Protein Spin-Down Assay kit, Cytoskeleton, Inc.)", "sequence (P68363 whole entry, chain 1 of 2)": "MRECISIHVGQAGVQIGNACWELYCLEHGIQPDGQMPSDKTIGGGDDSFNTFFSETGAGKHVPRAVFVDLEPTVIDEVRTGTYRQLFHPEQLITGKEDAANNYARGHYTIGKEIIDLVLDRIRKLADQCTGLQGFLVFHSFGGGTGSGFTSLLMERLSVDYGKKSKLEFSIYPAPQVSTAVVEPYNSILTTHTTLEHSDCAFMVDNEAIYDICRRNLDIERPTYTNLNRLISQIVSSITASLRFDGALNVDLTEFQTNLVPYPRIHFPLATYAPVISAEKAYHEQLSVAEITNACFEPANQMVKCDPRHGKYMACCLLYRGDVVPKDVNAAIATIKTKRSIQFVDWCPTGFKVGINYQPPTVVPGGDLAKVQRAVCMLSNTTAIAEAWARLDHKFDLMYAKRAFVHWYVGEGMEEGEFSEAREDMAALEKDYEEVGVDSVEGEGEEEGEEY", "sequence (A8K068 whole entry, chain 2 of 2, further chain)": "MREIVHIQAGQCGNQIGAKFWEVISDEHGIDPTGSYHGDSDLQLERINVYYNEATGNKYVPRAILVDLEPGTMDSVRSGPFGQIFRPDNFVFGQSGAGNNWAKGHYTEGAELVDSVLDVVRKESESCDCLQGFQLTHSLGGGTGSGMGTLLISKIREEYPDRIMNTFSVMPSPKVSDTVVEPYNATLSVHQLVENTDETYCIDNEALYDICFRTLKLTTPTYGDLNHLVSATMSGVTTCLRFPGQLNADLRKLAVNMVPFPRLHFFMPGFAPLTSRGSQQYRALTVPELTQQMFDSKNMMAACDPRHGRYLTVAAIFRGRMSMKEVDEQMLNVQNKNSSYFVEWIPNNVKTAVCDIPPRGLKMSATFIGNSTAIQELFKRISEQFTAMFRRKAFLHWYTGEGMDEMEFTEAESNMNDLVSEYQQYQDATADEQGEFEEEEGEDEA", "assay": "co-sedimentation; microtubule spin-down: 2.5 μg protein, 30 min at room temperature with freshly polymerised microtubules (equivalent of 2 μM tubulin dimer), 20 μM Taxol, 10 mM MgCl2 and 4 mM GDP or GTP; 100,000 g for 40 min through a 60% glycerol cushion; supernatant and pellet on Coomassie gel", "data": [{"substance": "N-terminal His-tagged recombinant T. brucei ARL6 (natural protein)", "values": [{"measurement": "percent of the protein in the insoluble fraction with microtubules, with GDP", "value": 36, "unit": "%"}, {"measurement": "percent of the protein in the insoluble fraction with microtubules, with GTP", "value": 20, "unit": "%"}]}]}
